# Like-named read-outs stand apart in the source and are kept apart here.
# T1: human IL-4R on cells (HEK-Blue IL-4/IL-13 cells, TF-1 cells, human PBMCs) (human, UniProt P24394 26-825)
# T1 sequence (looked up): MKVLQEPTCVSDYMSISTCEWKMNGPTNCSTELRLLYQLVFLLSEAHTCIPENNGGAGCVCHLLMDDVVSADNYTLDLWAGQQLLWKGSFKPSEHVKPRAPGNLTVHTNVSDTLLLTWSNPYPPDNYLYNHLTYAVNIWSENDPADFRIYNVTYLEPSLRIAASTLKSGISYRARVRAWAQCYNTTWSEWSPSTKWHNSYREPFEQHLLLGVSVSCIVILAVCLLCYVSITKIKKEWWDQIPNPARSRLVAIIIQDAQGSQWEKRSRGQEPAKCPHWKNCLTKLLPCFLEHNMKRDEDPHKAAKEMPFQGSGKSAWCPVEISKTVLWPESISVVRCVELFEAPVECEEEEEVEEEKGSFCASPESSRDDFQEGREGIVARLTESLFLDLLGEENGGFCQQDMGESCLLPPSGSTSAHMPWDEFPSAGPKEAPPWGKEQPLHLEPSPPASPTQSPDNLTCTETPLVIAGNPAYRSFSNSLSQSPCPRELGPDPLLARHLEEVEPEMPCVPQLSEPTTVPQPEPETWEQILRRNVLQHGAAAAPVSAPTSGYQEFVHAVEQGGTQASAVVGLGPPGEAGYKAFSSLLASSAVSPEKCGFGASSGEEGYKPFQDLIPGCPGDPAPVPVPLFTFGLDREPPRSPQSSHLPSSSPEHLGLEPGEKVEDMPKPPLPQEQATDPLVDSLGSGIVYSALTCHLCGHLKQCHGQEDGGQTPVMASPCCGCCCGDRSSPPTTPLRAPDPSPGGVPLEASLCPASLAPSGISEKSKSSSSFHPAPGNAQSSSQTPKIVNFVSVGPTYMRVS
# T2: mmIL4R-mFc (Macaca mulatta IL-4R extracellular domain fused to murine IgG2a Fc) (Macaca mulatta)
# T2 chain: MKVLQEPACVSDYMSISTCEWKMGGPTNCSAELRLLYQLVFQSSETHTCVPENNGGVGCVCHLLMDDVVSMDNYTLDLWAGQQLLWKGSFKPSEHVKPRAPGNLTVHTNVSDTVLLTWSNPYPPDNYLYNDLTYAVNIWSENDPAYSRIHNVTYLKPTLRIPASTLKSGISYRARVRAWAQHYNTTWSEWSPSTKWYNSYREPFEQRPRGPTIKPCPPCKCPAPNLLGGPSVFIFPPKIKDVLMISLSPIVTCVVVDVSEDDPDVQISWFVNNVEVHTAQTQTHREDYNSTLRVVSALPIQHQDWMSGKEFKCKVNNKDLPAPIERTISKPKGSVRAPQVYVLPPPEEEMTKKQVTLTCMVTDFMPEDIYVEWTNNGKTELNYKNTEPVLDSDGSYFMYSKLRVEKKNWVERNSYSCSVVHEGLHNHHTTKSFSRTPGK
# T3: recombinant hIL4R-his (human IL-4R extracellular domain with C-terminal His tag) (human (Homo sapiens), UniProt P24394 26-232)
# T3 construct: The tag was added at the C-terminus; The protein was expressed in HEK293 cells; also called huIL4R
# T3 sequence: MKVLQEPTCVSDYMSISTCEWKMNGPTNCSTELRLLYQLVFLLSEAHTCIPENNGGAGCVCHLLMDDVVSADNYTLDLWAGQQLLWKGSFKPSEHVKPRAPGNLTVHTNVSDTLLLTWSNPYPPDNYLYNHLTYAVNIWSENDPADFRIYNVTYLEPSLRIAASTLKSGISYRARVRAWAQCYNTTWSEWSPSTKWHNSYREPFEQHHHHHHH
# Experiments:
# [1] = target: T1, human IL-4R on cells (HEK-Blue …); test: cell-based or functional assay
# [2] = target: T2, mmIL4R-mFc (Macaca mulatta IL-4R …); test: SPR Biacore X100, antibody captured, mmIL4R-mFc as analyte
# Procedure: (§1) The affinity of each anti-IL4R IgG4 chimeric antibody was determined using Biacore X100. Amino coupling kits, human antibody capture kits, CM5 chips, 1× HBS-EP (pH 7.4) and all reagents used in this assay were purchased from GE Healthcare. According to the instructions in the kits, an antibody against the human Fc region was coupled to the surface of the CM5 chip using an amino coupling method, and antibody proteins were diluted to appropriate concentrations to ensure that about 100 RU of the antibodies was captured by the antibody against the human Fc. IL4R-his was set to a series of concentration gradients (100 nm, 33.3 nm, 11.1 nm, 3.7 nm, 1.23 nm) and flew through the surface of the stationary phase.
# Similarly, anti-IL4R monoclonal antibodies were captured and mmIL4R-mFc was set to a series of concentration gradient (50 nm, 16.7 nm, 5.56 nm, […], 0.62 nm).
# [3] = target: T1, human IL-4R on cells (HEK-Blue …); test: cell-based or functional assay; remark: listed apart in the source
# [4] = target: T4, IL4R-mFc (human IL-4R extracellular domain fused to murine IgG2a Fc) (human (Homo sapiens)); test: blocking ELISA: antibody gradient with IL4-his at a fixed concentration on coated IL4R-mFc; bound IL4-his detected with HRP-mouse-anti-his IgG
# T4 construct: also called antigen IL4R-mFc
# Procedure: (§2) 96 well plates were coated with antigen IL4R-mFc (3 μg/ml, 100 μI/well) overnight at 4° C.
# [5] = target: T3, recombinant hIL4R-his (human IL-4R …); test: SPR Biacore X100, antibody captured by anti-human Fc, IL4R-his as analyte, 25 C
# Procedure: as §1
# [6] = target: T1, human IL-4R on cells (HEK-Blue …); test: cell-based or functional assay; remark: listed apart in the source
# [7] = target: T1, human IL-4R on cells (HEK-Blue …); test: cell-based or functional assay; remark: listed apart in the source
# [8] = target: T1, human IL-4R on cells (HEK-Blue …); test: cell-based or functional assay; remark: listed apart in the source
# [9] = target: T4, IL4R-mFc (human IL-4R extracellular …); test: blocking ELISA: antibody gradient with IL4-his at a fixed concentration on coated IL4R-mFc; bound IL4-his detected with HRP-mouse-anti-his IgG; remark: listed apart in the source
# Procedure: as §2
# [10] = target: T1, human IL-4R on cells (HEK-Blue …); test: cell-based or functional assay; remark: listed apart in the source
# [11] = target: T3, recombinant hIL4R-his (human IL-4R …); test: SPR Biacore X100, antibody captured by anti-human Fc, IL4R-his as analyte, 25 C; remark: listed apart in the source
# Procedure: as §1
# [12] = target: T1, human IL-4R on cells (HEK-Blue …); test: cell-based or functional assay; remark: listed apart in the source
Binder,"IC50 values in inhibition of IL-13 (SEAP, HEK-Blue IL-4/IL-13 cells) [1] [nM]",Kd [2] [nM],koff [2] [s⁻¹],kon [2] [M⁻¹ s⁻¹],"IC50 values in inhibition of IL-4 (SEAP, HEK-Blue IL-4/IL-13 cells) [3] [nM]",IC50 (read off the curve) [4] [nM],Kd [5] [nM],koff [5] [s⁻¹],kon [5] [M⁻¹ s⁻¹],"IC50 values in inhibition of CD23 expression on human PBMCs (IL-4 stimulated, flow cytometry) [6] [nM]","IC50 values in inhibition of IL-4 (IL-4 induced proliferation of TF-1 cells, CellTiter-Glo) [7] [nM]",fold of IC50 in inhibition of IL-4 induced CD23 expression on PBMCs against L18D7 [8] [fold],IC50 (read off the curve) [9] [nM],"IC50 values in inhibition of IL-13 (SEAP, HEK-Blue IL-4/IL-13 cells) [10] [nM]",Kd [11] [nM],koff [11] [s⁻¹],kon [11] [M⁻¹ s⁻¹],"IC50 values in inhibition of IL-4 (SEAP, HEK-Blue IL-4/IL-13 cells) [12] [nM]",fold of IC50 in inhibition of IL-4 against L10B2 (HEK-Blue IL-4/IL-13 cells) [8] [fold],fold of IC50 in inhibition of IL-13 against L10B2 (HEK-Blue IL-4/IL-13 cells) [8] [fold]
"L18D7-IgG4 (antibody, V domains shown, also called S1E6 light chain mutant L18D7) VH: EVQLVESGGGLVQPGGSLRLSCAVSGFTFSSYAMSWVRQAPGKGLEWVSSITGGGGGIYYADSVKGRFTISRDNSKNTVYLQMNSLRAEDTAVYYCAKDRISITIRPRYFGLDFWGQGTTVTVSS VL: DIVMTQSPLSLPVTPGEPASISCRSSQSLLYSIGYNYLDWYLQKSGQSPQLLIYLGSNRASGVPDRFSGSGSGTDFTLKISRVEAEDVGFYYCMQSFKAPYTFGQGTKLEIKR",0.0102,1.67,0.000984,590000,0.0484,~10,0.48,0.000143,297000,0.0268,0.116,,,,,,,,,
"L10C2-IgG4 (antibody, V domains shown, also called S1E6 light chain mutant L10C2) VH: EVQLVESGGGLVQPGGSLRLSCAVSGFTFSSYAMSWVRQAPGKGLEWVSSITGGGGGIYYADSVKGRFTISRDNSKNTVYLQMNSLRAEDTAVYYCAKDRISITIRPRYFGLDFWGQGTTVTVSS VL: DIVMTQSPLSLPVTAGAPASISCRSSQSLLYSNGYNYLDWYMQKPGQSPQLLIYLGSNRASGVPDRFSGSGSGTDFTLKISRVEAEDVGVYYCMQALETPYAFGQGTKVEIKR",,,,,,,,,,,,,~8,0.0314,0.874,0.000309,353000,0.333,1.6,2.4

# Now from value to binder:
"IC50 values in inhibition of IL-13 (SEAP, HEK-Blue IL-4/IL-13 cells) [1] [nM]",Kd [2] [nM],koff [2] [s⁻¹],kon [2] [M⁻¹ s⁻¹],"IC50 values in inhibition of IL-4 (SEAP, HEK-Blue IL-4/IL-13 cells) [3] [nM]",IC50 (read off the curve) [4] [nM],Kd [5] [nM],koff [5] [s⁻¹],kon [5] [M⁻¹ s⁻¹],"IC50 values in inhibition of CD23 expression on human PBMCs (IL-4 stimulated, flow cytometry) [6] [nM]","IC50 values in inhibition of IL-4 (IL-4 induced proliferation of TF-1 cells, CellTiter-Glo) [7] [nM]",fold of IC50 in inhibition of IL-4 induced CD23 expression on PBMCs against L18D7 [8] [fold],IC50 (read off the curve) [9] [nM],"IC50 values in inhibition of IL-13 (SEAP, HEK-Blue IL-4/IL-13 cells) [10] [nM]",Kd [11] [nM],koff [11] [s⁻¹],kon [11] [M⁻¹ s⁻¹],"IC50 values in inhibition of IL-4 (SEAP, HEK-Blue IL-4/IL-13 cells) [12] [nM]",fold of IC50 in inhibition of IL-4 against L10B2 (HEK-Blue IL-4/IL-13 cells) [8] [fold],fold of IC50 in inhibition of IL-13 against L10B2 (HEK-Blue IL-4/IL-13 cells) [8] [fold],Binder
0.0121,8.4,0.00594,706000,0.0494,~4,0.586,0.000194,331000,0.0635,0.129,2.3,,,,,,,,,"L28C9-IgG4 (antibody, V domains shown, also called S1E6 light chain mutant L28C9) VH: EVQLVESGGGLVQPGGSLRLSCAVSGFTFSSYAMSWVRQAPGKGLEWVSSITGGGGGIYYADSVKGRFTISRDNSKNTVYLQMNSLRAEDTAVYYCAKDRISITIRPRYFGLDFWGQGTTVTVSS VL: DIVMTQSPLSLPVTPGEPASISCRSSQNVVYGNGYNYLDWYLQKSGQSPQLLIYLGNNVAAGVPDRFSGSGSGTDFTLKISRVEAEDVGFYYCMQSLKAPYTFGQGTKLEIKR"
,,,,,,,,,,,,~7,0.0131,0.443,0.000152,343000,0.207,,,"L10B2-IgG4 (antibody, V domains shown, also called S1E6 light chain mutant L10B2) VH: EVQLVESGGGLVQPGGSLRLSCAVSGFTFSSYAMSWVRQAPGKGLEWVSSITGGGGGIYYADSVKGRFTISRDNSKNTVYLQMNSLRAEDTAVYYCAKDRISITIRPRYFGLDFWGQGTTVTVSS VL: DIVMTQSPLSLPVTPGEPASISCRSSHNLLYSNGYNYLDWYLQKPGQSPQLLIYLGSNRAYGVPDRFSGSGSGTDFTLKISRVEAEDVGVYHCMQALQSPYTFGQGTKVDIKR"
